Paper PMC7056357
Like-named read-outs stand apart in the source and are kept apart here.

How the values were obtained:
[1] = target: CCR5-mTFP1 (UniProt P51681)
[2] = target: CD4-mRFP (human) (UniProt P01730); assay: multicolour TIRF-dSTORM with interaction factor analysis
[3] = target: T1, CXCR4-mTFP1 (human), P61073; conditions: remark: other sources report otherwise
T1 chain: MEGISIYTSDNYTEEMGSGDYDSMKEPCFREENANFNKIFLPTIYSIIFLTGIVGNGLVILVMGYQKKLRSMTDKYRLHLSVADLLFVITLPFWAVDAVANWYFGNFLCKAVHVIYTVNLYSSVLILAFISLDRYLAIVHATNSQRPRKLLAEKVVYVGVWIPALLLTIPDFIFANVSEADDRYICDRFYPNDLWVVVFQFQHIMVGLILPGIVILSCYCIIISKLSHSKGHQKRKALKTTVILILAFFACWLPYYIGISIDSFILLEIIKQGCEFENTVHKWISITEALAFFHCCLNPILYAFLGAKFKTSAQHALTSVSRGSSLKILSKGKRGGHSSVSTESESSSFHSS

[4] = target: T1, CXCR4-mTFP1 (human), P61073; assay: number and brightness; conditions: remark: other sources report otherwise
[5] = target: T2, CXCR4-eYFP (human), P61073; assay: multicolour TIRF-dSTORM with interaction factor analysis; conditions: remark: other sources report otherwise
T2 chain: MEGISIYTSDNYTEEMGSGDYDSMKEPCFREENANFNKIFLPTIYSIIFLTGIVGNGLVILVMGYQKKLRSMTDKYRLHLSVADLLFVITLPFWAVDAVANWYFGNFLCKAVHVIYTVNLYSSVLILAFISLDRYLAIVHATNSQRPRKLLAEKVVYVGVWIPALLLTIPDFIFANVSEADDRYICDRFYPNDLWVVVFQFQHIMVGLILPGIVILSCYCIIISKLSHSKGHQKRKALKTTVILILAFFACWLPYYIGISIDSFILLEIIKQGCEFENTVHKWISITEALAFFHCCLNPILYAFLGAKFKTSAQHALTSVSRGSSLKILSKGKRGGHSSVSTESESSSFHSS

Chain of UniProt P51681 (P51681 whole entry): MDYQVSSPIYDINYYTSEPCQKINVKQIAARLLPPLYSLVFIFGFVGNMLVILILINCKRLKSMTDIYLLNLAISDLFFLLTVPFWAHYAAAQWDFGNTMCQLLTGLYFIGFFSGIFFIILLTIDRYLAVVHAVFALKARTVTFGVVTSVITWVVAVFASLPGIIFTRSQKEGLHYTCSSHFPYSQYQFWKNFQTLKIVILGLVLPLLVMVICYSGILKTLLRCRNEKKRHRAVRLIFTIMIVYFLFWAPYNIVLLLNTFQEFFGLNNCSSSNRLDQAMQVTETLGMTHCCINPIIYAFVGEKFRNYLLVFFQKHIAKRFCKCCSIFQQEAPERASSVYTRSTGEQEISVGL

## HIV-1 JR-FL Env on HIV_(JR-FL) virions (complex)
[1]
  CCR5 molecules bound to a single Env trimer: 2
[2]
  probability of 3 CD4 molecules engaged with 1 Env spike: 0.36
  probability of 4 CD4 molecules engaged with 1 Env spike: 0.1

B1: CXCR4-mTFP1, P61073 1-352 (receptor)
chain: MEGISIYTSDNYTEEMGSGDYDSMKEPCFREENANFNKIFLPTIYSIIFLTGIVGNGLVILVMGYQKKLRSMTDKYRLHLSVADLLFVITLPFWAVDAVANWYFGNFLCKAVHVIYTVNLYSSVLILAFISLDRYLAIVHATNSQRPRKLLAEKVVYVGVWIPALLLTIPDFIFANVSEADDRYICDRFYPNDLWVVVFQFQHIMVGLILPGIVILSCYCIIISKLSHSKGHQKRKALKTTVILILAFFACWLPYYIGISIDSFILLEIIKQGCEFENTVHKWISITEALAFFHCCLNPILYAFLGAKFKTSAQHALTSVSRGSSLKILSKGKRGGHSSVSTESESSSFHSS
[3]
  stoichiometry N: 2
[4]
  stoichiometry N: 2

B2: CXCR4-eYFP, P61073 1-352 (receptor)
chain: MEGISIYTSDNYTEEMGSGDYDSMKEPCFREENANFNKIFLPTIYSIIFLTGIVGNGLVILVMGYQKKLRSMTDKYRLHLSVADLLFVITLPFWAVDAVANWYFGNFLCKAVHVIYTVNLYSSVLILAFISLDRYLAIVHATNSQRPRKLLAEKVVYVGVWIPALLLTIPDFIFANVSEADDRYICDRFYPNDLWVVVFQFQHIMVGLILPGIVILSCYCIIISKLSHSKGHQKRKALKTTVILILAFFACWLPYYIGISIDSFILLEIIKQGCEFENTVHKWISITEALAFFHCCLNPILYAFLGAKFKTSAQHALTSVSRGSSLKILSKGKRGGHSSVSTESESSSFHSS
[5]
  stoichiometry N: 2
